Test: yeast display, Sf9 membrane polyspecificity reagent, FACS + sequencing; frameworks hold sequencing errors
How it was run: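 Using colony PCR, genes from sorted yeast display clones were amplified, then sequenced on MiSeq at 2 × 250 and filtered by CDR length. The clones had been stained with 10% biotinylated, detergent-solubilized Sf9 membrane reagent for 1 hour at 4 °C and sorted by FACS into low and high (top ~1%) gates on anti-HA and streptavidin fluorescence. Polyreactivity labels come from the gate of origin.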

Row | Sequence | polyreactivity (PSR sort gate)
1 | QVQLVESGGGLVQAGGSLRLSCAASGRTFYSYAMGWYRQAPGKERELVATIRRGGRTNYADSVKGRFTISRDNAKNTVYLQMNSLKPEDTAVYYCAAEDYLSWVTSTYDYWGQGTQVAVSS | low polyreactivity
2 | QVQLVESGGGLVQAGGSLRLSCAASGRTFYSYARGWYRQAPGKERELVAAINSGGDTYYADSVKGRFTISRDNAKNTVYLQMNSLKPEDTAVDYCAADIEVQYITLGVELPYDYWGQGTQVTVSS | low polyreactivity
3 | QVQLVESGGGLVQAGGSLRLSCAASGRTFYTNAMGWYRQAPGKERELVAAITRGGTTYYADSVKGRFTISRDNAKNTVYLQMNSLKPVDTAVYYCAADTESIVATDLIRKYDYWGQGTQVTVSS | low polyreactivity
4 | QVQLVESGGGLVQAGGSLRLSCAASGRTFYTYAMGWYIQAPGKEREFVAAIRFSGGNTYYADSVKGRFTISRDNAKNTVYLQMKSLKPEDTAVYYCAARRLLYKYWTGGPYDYWGQGTQVTVSS | high polyreactivity
5 | QVQLVESGGGLVQAGGSLRLSCAASGRTFYTYAMGWYRQAPGKERELVAAITYSGGRTSYADSVKGRFTISRDNAKNTVYLQMNSLKPEDTAVYYCAARTLGRRLDYGYWGQGTQVSVSS | low polyreactivity
6 | QVQLVESGGGLVQAGGSLRLSCAASGRTFYTYAMGWYRQAPGKERELVATITSGGSTYYGDSVKGRFTISRDNAKNTVYLQMNSLKPEDTAVYYCDVEVFVDYDYWGQGTQVTVSS | high polyreactivity
7 | QVQLVESGGGLVQAGGSLRLSCAASGRTFYVNAMGWYRQAPGKERELVAGISFSDGSTYYADSVKGRFTISRDNAKNTVYLQMNSLKPEDTAVYYCASVGAFDIYYGYGYWGQGTQVTVSS | low polyreactivity
8 | QVQLVESGGGLVQAGGSLRLSCAASGRTFYVYTMGWYRQAPGKERELVAAISSGGTTNYADSVKGRFTISRDNAKNTVYLQMNSLKPEDTAVYYCATERGYRYRGPLRVNYDYWGQGTQVTVSS | low polyreactivity
9 | QVQLVESGGGLVQAGGSLRLSCAASGRTFYWNAMGWYRQAPGKEREFVAAITNTAGYTYYADSVKGRFTISRDNAKNTVYLQMNSLKPEDTAVYYCAKSGNAGYRTYLRDYWGQGTQVTVSS | low polyreactivity
10 | QVQLVESGGGLVQAGGSLRLSCAASGRTFYWYAMGWYRKAPGKERELVAAITSGGSTYYADSVKGRFTISRDNEKNTVYLQMNILKPEDTAVYYCGVDVDWWDGMDYWGQGTQVTVSS | high polyreactivity
11 | QVQLVESGGGLVQAGGSLRLSCAASGRTFYWYAMGWYRQAPGKERELVAAIRRSGGRTYYADSVKGRFTISRDNAKNTVYLQMNSLKPEDTAVYYCNVAYLRYPGPLDYWGQGTQVTVSS | high polyreactivity
12 | QVQLVESGGGLVQAGGSLRLSCAASGRTFYWYVMGWYRQAPGKERELVAAITQTGSSTYYADSVKGRFTISRDNAKNTVYLQMNSLKPEDTAVYYCADRLSRNHYEVDYWGQGTQVTVSS | low polyreactivity
13 | QVQLVESGGGLVQAGGSLRLSCAASGRTFYYAMGWYRPAPGKERELVAGITWSGGSTYYADSVKGRFTISRDNAKNTVYLQMNSLKPEDTAVYYCNAVYRYRTYRYDYWGQGTQVTVSS | high polyreactivity
14 | QVQLVESGGGLVQAGGSLRLSCAASGRTFYYNAMGWYRQAHGKERQLVADINWSGVRTYYADSVKGRFTISRDNAKNTVYLQMNSLKPEDTAVYYCAARVGPYSLAVDGFKHGYWGQGTQVTVSS | low polyreactivity
15 | QVQLVESGGGLVQAGGSLRLSCAASGRTFYYNAMGWYRQAPGKERELVAAISASSGRTYYADSVKGRFTISRDNAKNTVYFPMNSLKPEDTAVYYCANRYGGDYTRGYGYWGQGTQVTVSS | high polyreactivity
16 | QVQLVESGGGLVQAGGSLRLSCAASGRTFYYNAMGWYRQAPGKERELVATISWRGGNTYYADSVKGRFTISRDNAKNTVYLQMNSLKPEDTAVYYCNARTVGWKALTGKYDYWGQGTQVTVSS | high polyreactivity
17 | QVQLVESGGGLVQAGGSLRLSCAASGRTFYYNAMVWYRQAPGKERELVAAITWSGGRTFYADSVKGRFTISRDNAKNTVYLQMNSLKPEDTAVYYCNAYPVFRSYDYWGQGTQVTVSS | high polyreactivity
